In paper PMC10883291:

B1: BMS-986351 (antibody, V domains shown)
VH: QVQLVQSGAEVKKPGASVKVSCKASGYTFRGYGISWVRQAPGQGLEWMGWISAYGGETNYAQKLQGRVTMTTDTSTSTAYMELRSLRSDDTAVYYCAREAGSSWYDFDLWGRGTLVTVSS
VL: DIQMTQSPSSVSASVGDRVTITCRASQGISSWLAWYQQKPGKAPKLLIYAASNLQSGVPSRFSGSGSGTDFTLTISSLQPEDFATYYCQQGASFPITFGGGTKVEIK
B2: BMS-986351-Fab (Fab, V domains shown)
VH: B1 VH
VL: B1 VL

Experiments:
[1] = target: FcγR2A (CD32aR131) (human); experiment: FRET or BRET; time-resolved FRET (Cisbio); FcγRs expressed on HEK293 cells (Tb donor cells); IgG-d2 acceptor conjugate displaced by the test antibodies; EC50 by the manufacturer's protocol
FcγR2A (CD32aR131) (human), sequence (P12318 34-317 H167R): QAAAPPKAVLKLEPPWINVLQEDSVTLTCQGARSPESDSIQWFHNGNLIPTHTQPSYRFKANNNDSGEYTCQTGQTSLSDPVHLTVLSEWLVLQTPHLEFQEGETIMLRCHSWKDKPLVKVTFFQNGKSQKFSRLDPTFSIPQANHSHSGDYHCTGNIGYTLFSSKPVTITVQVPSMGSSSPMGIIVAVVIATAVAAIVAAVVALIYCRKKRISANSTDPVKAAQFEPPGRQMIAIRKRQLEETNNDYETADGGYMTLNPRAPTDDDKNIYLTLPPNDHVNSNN

[2] = target: FcγR3A (CD16aV158) (human); experiment: as above
FcγR3A (CD16aV158) (human), sequence (P08637 17-254 F176V): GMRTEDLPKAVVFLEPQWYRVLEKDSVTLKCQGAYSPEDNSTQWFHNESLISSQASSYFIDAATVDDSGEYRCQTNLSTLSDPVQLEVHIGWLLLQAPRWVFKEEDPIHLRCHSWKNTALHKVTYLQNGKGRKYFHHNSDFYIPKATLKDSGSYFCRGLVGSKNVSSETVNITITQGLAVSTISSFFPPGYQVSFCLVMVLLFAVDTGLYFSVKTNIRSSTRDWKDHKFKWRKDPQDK

[3] = target: SIRPα variant 4 Fc (haplotype v4 ESK) (human) (UniProt P78324); experiment: BLI; Octet, under affinity conditions; SIRPα variants 1-6 Fc captured on anti-human capture tips, dipped into 50 nmol/L BMS-986351-Fab; association 180 s, dissociation 180 s; 2 x 10^-4 is the limit of koff that can be confidently assigned
SIRPα variant 4 Fc (haplotype v4 ESK) (human), sequence (P78324 other isoform, or with tags, fused parts or gaps, change not shown): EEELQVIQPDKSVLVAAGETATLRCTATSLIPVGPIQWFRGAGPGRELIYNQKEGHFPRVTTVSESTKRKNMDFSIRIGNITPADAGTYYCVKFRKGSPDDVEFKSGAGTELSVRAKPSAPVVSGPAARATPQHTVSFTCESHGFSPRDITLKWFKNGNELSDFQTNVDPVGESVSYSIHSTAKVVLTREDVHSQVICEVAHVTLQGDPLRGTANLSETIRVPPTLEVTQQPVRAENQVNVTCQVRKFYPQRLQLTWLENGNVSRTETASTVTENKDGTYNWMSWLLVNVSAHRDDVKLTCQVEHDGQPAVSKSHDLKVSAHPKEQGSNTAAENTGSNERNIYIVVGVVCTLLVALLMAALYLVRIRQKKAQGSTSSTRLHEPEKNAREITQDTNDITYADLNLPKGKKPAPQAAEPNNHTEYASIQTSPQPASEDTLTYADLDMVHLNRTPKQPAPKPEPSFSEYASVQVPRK

[4] = target: SIRPα variant 3 Fc (haplotype v3 DLE) (human) (UniProt P78324); experiment: as above
SIRPα variant 3 Fc (haplotype v3 DLE) (human), sequence (P78324 other isoform, or with tags, fused parts or gaps, change not shown): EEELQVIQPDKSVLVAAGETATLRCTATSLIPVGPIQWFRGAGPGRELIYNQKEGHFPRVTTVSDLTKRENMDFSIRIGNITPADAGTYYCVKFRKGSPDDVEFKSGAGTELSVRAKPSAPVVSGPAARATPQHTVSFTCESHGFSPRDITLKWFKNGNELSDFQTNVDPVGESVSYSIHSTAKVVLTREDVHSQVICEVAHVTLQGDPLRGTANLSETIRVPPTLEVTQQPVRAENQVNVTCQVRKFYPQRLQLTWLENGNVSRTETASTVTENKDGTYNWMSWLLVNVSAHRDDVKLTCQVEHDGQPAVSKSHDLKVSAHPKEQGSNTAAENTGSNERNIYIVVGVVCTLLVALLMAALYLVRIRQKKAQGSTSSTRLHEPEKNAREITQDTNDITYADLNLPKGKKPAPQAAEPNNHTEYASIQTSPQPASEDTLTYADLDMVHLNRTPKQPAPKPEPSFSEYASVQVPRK

[5] = target: SIRPα variant 6 Fc (haplotype v6 ELE) (human) (UniProt P78324); experiment: as above
SIRPα variant 6 Fc (haplotype v6 ELE) (human), sequence (P78324 other isoform, or with tags, fused parts or gaps, change not shown): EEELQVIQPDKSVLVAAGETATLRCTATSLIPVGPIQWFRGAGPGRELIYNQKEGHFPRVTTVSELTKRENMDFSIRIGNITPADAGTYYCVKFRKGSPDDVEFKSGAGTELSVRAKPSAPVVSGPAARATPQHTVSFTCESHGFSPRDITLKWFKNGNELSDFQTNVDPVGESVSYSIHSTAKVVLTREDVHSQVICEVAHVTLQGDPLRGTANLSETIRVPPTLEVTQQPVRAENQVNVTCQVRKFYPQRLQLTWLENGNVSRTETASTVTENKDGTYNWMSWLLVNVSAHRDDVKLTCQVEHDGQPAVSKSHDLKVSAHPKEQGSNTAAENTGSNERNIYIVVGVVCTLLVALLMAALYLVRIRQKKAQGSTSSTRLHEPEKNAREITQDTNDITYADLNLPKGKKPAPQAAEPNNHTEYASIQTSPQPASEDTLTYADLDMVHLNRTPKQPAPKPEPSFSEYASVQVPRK

[6] = target: SIRPα variant 5 Fc (haplotype v5 EPN) (human) (UniProt P78324); experiment: as above
SIRPα variant 5 Fc (haplotype v5 EPN) (human), sequence (P78324 other isoform, or with tags, fused parts or gaps, change not shown): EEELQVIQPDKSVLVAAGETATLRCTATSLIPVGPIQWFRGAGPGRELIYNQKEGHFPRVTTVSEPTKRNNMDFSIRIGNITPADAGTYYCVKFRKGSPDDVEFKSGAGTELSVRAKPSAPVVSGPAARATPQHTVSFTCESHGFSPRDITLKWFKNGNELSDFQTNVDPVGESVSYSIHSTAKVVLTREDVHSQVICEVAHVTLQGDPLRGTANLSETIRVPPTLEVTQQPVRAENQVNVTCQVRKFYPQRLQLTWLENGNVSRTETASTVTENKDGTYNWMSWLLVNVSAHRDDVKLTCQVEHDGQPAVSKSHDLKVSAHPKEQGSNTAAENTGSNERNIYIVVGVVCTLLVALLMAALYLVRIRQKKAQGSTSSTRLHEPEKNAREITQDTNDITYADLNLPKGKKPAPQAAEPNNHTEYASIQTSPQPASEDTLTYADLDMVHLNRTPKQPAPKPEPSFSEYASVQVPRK

| Binder | EC50 [1] | EC50 [2] | Kd [3] | koff [3] | kon [3] | Kd [4] | koff [4] | kon [4] | Kd [5] | koff [5] | kon [5] | Kd [6] | koff [6] | kon [6] |
| --- | --- | --- | --- | --- | --- | --- | --- | --- | --- | --- | --- | --- | --- | --- |
| B1 | 188 nM | 795 nM |  |  |  |  |  |  |  |  |  |  |  |  |
| B2 |  |  | 1.52 nM | 0.00228 s⁻¹ | 1.5e+06 M⁻¹ s⁻¹ | < 0.145 nM | < 0.0002 s⁻¹ | 1.38e+06 M⁻¹ s⁻¹ | 0.183 nM | 0.000356 s⁻¹ | 1.94e+06 M⁻¹ s⁻¹ | 0.611 nM | 0.00106 s⁻¹ | 1.73e+06 M⁻¹ s⁻¹ |
